125 sequences from the supplement of paper PMC9112550, “Optimization of the antimicrobial peptide Bac7 by deep mutational scanning” (BMC Biology, 2022) can be followed below.

In the series the test system is Escherichia coli TOP10. Kind of series: shrunken log2 fold change of peptide-encoding DNA abundance (4.5 h post-induction vs induction); higher = less antimicrobial activity (less host growth inhibition). As to conditions: time post-induction: 4.5 h; library: site-saturation at positions 5, 18, 19, 20.
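Note: peptides expressed intracellularly from a pBAD plasmid library in pooled LB shake-flask culture, induced with 0.3% L-arabinose, DNA abundance read by NGS, three biological replicates, DESeq2 with apeglm shrinkage.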

Regarding RRIRERPPRLPRPRPRPRWPPRP, the “shrunken log2 fold change” value was found to be 0.486.

On to RRIRMRPPRLPRPRPRPNTLPRP, for which the “shrunken log2 fold change” value is -0.507.

Take RRIRGRPPRLPRPRPRPKWNPRP: the “shrunken log2 fold change” value worked out at 0.581.

For the sequence RRIRFRPPRLPRPRPRPQEQPRP, the “shrunken log2 fold change” value is -0.0102.

As to RRIRFRPPRLPRPRPRPQVCPRP, the “shrunken log2 fold change” value was -0.00807.

Turning to RRIRLRPPRLPRPRPRPPRYPRP, the “shrunken log2 fold change” value is 0.178.

For RRIRYRPPRLPRPRPRPSIVPRP, the “shrunken log2 fold change” value was -0.912.

Turning to RRIRQRPPRLPRPRPRPKEIPRP, the “shrunken log2 fold change” value was -0.223.

For RRIRERPPRLPRPRPRPSADPRP, the “shrunken log2 fold change” value is -0.625.

For RRIRERPPRLPRPRPRPKWFPRP, the “shrunken log2 fold change” value was -0.0144.

With RRIRVRPPRLPRPRPRPMVHPRP, the “shrunken log2 fold change” value came out at 0.141.

Consider RRIRERPPRLPRPRPRPGPQPRP, for which the “shrunken log2 fold change” value was determined as 0.231.

Take RRIRHRPPRLPRPRPRPWDFPRP: the “shrunken log2 fold change” value is -0.0612.

Take RRIRYRPPRLPRPRPRPMQYPRP: the “shrunken log2 fold change” value is -0.131.

Turning to RRIRLRPPRLPRPRPRPLNTPRP, the “shrunken log2 fold change” value was -0.454.

Regarding RRIRPRPPRLPRPRPRPGWDPRP, the “shrunken log2 fold change” value is 0.011.

In the case of RRIRLRPPRLPRPRPRPESMPRP, the “shrunken log2 fold change” value was 0.191.

Take RRIRNRPPRLPRPRPRPTGKPRP: the “shrunken log2 fold change” value is -0.0851.

As to RRIRPRPPRLPRPRPRPIFGPRP, the “shrunken log2 fold change” value was 0.0562.

Turning to RRIRPRPPRLPRPRPRPDSMPRP, the “shrunken log2 fold change” value is -0.326.

Turning to RRIRERPPRLPRPRPRPHHEPRP, the “shrunken log2 fold change” value was -0.191.

Regarding RRIRHRPPRLPRPRPRPHMNPRP, the “shrunken log2 fold change” value is -0.491.

Consider RRIRFRPPRLPRPRPRPPQDPRP, for which the “shrunken log2 fold change” value is 0.303.

Take RRIRMRPPRLPRPRPRPRVPPRP: the “shrunken log2 fold change” value came out at 0.83.

As to RRIRFRPPRLPRPRPRPLGYPRP, the “shrunken log2 fold change” value is 0.0222.

On to RRIRNRPPRLPRPRPRPWRDPRP, for which the “shrunken log2 fold change” value was -0.342.

For RRIRERPPRLPRPRPRPIWFPRP, the “shrunken log2 fold change” value is 0.0591.

For the sequence RRIRSRPPRLPRPRPRPAVGPRP, the “shrunken log2 fold change” value amounted to 0.391.

As for RRIRERPPRLPRPRPRPQTPPRP, the “shrunken log2 fold change” value amounted to 0.0694.

With RRIRLRPPRLPRPRPRPTTVPRP, the “shrunken log2 fold change” value is -0.175.

RRIRVRPPRLPRPRPRPWLCPRP: the “shrunken log2 fold change” value is -0.144.

On to RRIRNRPPRLPRPRPRPHTVPRP, for which the “shrunken log2 fold change” value was -0.118.

For the sequence RRIRPRPPRLPRPRPRPSFGPRP, the “shrunken log2 fold change” value is -0.156.

As to RRIRPRPPRLPRPRPRPLEMPRP, the “shrunken log2 fold change” value was found to be 0.0597.

On to RRIRTRPPRLPRPRPRPMAEPRP, for which the “shrunken log2 fold change” value worked out at 0.117.

For the sequence RRIRCRPPRLPRPRPRPDVYPRP, the “shrunken log2 fold change” value was determined as 0.0165.

On to RRIRWRPPRLPRPRPRPPLQPRP, for which the “shrunken log2 fold change” value was found to be 0.475.

For RRIRMRPPRLPRPRPRPRVKPRP, the “shrunken log2 fold change” value amounted to 0.494.

Take RRIRLRPPRLPRPRPRPYRIPRP: the “shrunken log2 fold change” value is -0.796.

Turning to RRIRLRPPRLPRPRPRPHQRPRP, the “shrunken log2 fold change” value was -0.259.

Turning to RRIRVRPPRLPRPRPRPATVPRP, the “shrunken log2 fold change” value was -0.154.

Turning to RRIRPRPPRLPRPRPRPKIRPRP, the “shrunken log2 fold change” value is -0.137.

Turning to RRIRERPPRLPRPRPRPCIQPRP, the “shrunken log2 fold change” value is -1.15.

In the case of RRIRGRPPRLPRPRPRPPFCPRP, the “shrunken log2 fold change” value came out at 0.592.

As for RRIRHRPPRLPRPRPRPQCDPRP, the “shrunken log2 fold change” value was -0.13.

Take RRIRDRPPRLPRPRPRPHRQPRP: the “shrunken log2 fold change” value is -0.0279.

As to RRIRARPPRLPRPRPRPDMRPRP, the “shrunken log2 fold change” value was 0.737.

On to RRIRHRPPRLPRPRPRPSLDPRP, for which the “shrunken log2 fold change” value was -0.22.

On to RRIRMRPPRLPRPRPRPCKQPRP, for which the “shrunken log2 fold change” value was determined as 0.0203.

For RRIRGRPPRLPRPRPRPLGSPRP, the “shrunken log2 fold change” value came out at 0.338.

Turning to RRIRARPPRLPRPRPRPKIGPRP, the “shrunken log2 fold change” value worked out at 0.458.

Regarding RRIRERPPRLPRPRPRPYQAPRP, the “shrunken log2 fold change” value is 0.019.

RRIRFRPPRLPRPRPRPAFAPRP: the “shrunken log2 fold change” value is 0.33.

On to RRIRFRPPRLPRPRPRPDHRPRP, for which the “shrunken log2 fold change” value worked out at 0.0119.

On to RRIRARPPRLPRPRPRPELNPRP, for which the “shrunken log2 fold change” value came out at 0.746.

As to RRIRHRPPRLPRPRPRPQHCPRP, the “shrunken log2 fold change” value is -0.503.

Turning to RRIRFRPPRLPRPRPRPMMCPRP, the “shrunken log2 fold change” value is -0.139.

In the case of RRIRYRPPRLPRPRPRPEQMPRP, the “shrunken log2 fold change” value worked out at 0.195.

Regarding RRIRSRPPRLPRPRPRPFTHPRP, the “shrunken log2 fold change” value is -0.0568.

On to RRIRMRPPRLPRPRPRPTCSPRP, for which the “shrunken log2 fold change” value worked out at 0.134.

Consider RRIRRRPPRLPRPRPRPRTCPRP, for which the “shrunken log2 fold change” value stood at 0.477.

Regarding RRIRHRPPRLPRPRPRPVTPPRP, the “shrunken log2 fold change” value was -0.00938.

Take RRIRDRPPRLPRPRPRPFQNPRP: the “shrunken log2 fold change” value amounted to 0.0838.

Take RRIRPRPPRLPRPRPRPYCKPRP: the “shrunken log2 fold change” value is -0.896.

Consider RRIRWRPPRLPRPRPRPVDRPRP, for which the “shrunken log2 fold change” value is -0.0331.

With RRIRLRPPRLPRPRPRPKFQPRP, the “shrunken log2 fold change” value is -0.113.

As for RRIRVRPPRLPRPRPRPDFMPRP, the “shrunken log2 fold change” value is -0.0875.

Regarding RRIRPRPPRLPRPRPRPYIMPRP, the “shrunken log2 fold change” value was -0.976.

RRIRFRPPRLPRPRPRPGEGPRP: the “shrunken log2 fold change” value amounted to 0.375.

On to RRIRPRPPRLPRPRPRPDCCPRP, for which the “shrunken log2 fold change” value was -0.0125.

On to RRIRVRPPRLPRPRPRPDCEPRP, for which the “shrunken log2 fold change” value is -0.0964.

RRIRNRPPRLPRPRPRPPGVPRP: the “shrunken log2 fold change” value was 0.653.

As to RRIRDRPPRLPRPRPRPMLGPRP, the “shrunken log2 fold change” value came to 0.015.

Take RRIRRRPPRLPRPRPRPLDPPRP: the “shrunken log2 fold change” value came out at 0.5.

For RRIRKRPPRLPRPRPRPPLQPRP, the “shrunken log2 fold change” value was 0.558.

With RRIRHRPPRLPRPRPRPCMDPRP, the “shrunken log2 fold change” value was -0.0981.

With RRIRQRPPRLPRPRPRPIGAPRP, the “shrunken log2 fold change” value was -0.0217.

For the sequence RRIRHRPPRLPRPRPRPEGAPRP, the “shrunken log2 fold change” value was found to be 0.686.

For RRIRVRPPRLPRPRPRPFFGPRP, the “shrunken log2 fold change” value is -0.0414.

Regarding RRIRPRPPRLPRPRPRPWNQPRP, the “shrunken log2 fold change” value was -0.759.

For RRIRNRPPRLPRPRPRPRCDPRP, the “shrunken log2 fold change” value was -0.203.

RRIRIRPPRLPRPRPRPITNPRP: the “shrunken log2 fold change” value was -0.176.

As for RRIRNRPPRLPRPRPRPSMDPRP, the “shrunken log2 fold change” value amounted to 0.00334.

In the case of RRIRDRPPRLPRPRPRPIVAPRP, the “shrunken log2 fold change” value was -0.0201.

As for RRIRWRPPRLPRPRPRPGFVPRP, the “shrunken log2 fold change” value was 0.291.

Consider RRIRRRPPRLPRPRPRPLFMPRP, for which the “shrunken log2 fold change” value was found to be 0.0797.

RRIRWRPPRLPRPRPRPIPFPRP: the “shrunken log2 fold change” value was -0.102.

On to RRIRHRPPRLPRPRPRPILFPRP, for which the “shrunken log2 fold change” value is -0.148.

With RRIRARPPRLPRPRPRPQCYPRP, the “shrunken log2 fold change” value was -0.0761.

RRIRERPPRLPRPRPRPRQNPRP: the “shrunken log2 fold change” value came to 0.177.

RRIRCRPPRLPRPRPRPGRVPRP: the “shrunken log2 fold change” value was determined as 0.288.

Turning to RRIRSRPPRLPRPRPRPSGLPRP, the “shrunken log2 fold change” value amounted to 0.177.

Regarding RRIRFRPPRLPRPRPRPIQSPRP, the “shrunken log2 fold change” value is -0.127.

As for RRIRYRPPRLPRPRPRPSTVPRP, the “shrunken log2 fold change” value was -0.0902.

For RRIRLRPPRLPRPRPRPPSNPRP, the “shrunken log2 fold change” value worked out at 0.00215.

Consider RRIRQRPPRLPRPRPRPIKFPRP, for which the “shrunken log2 fold change” value was -0.282.

With RRIRSRPPRLPRPRPRPDYTPRP, the “shrunken log2 fold change” value is -0.342.

In the case of RRIRWRPPRLPRPRPRPDAFPRP, the “shrunken log2 fold change” value turned out to be 0.0334.

As to RRIRSRPPRLPRPRPRPMPHPRP, the “shrunken log2 fold change” value turned out to be 0.00101.

For RRIRGRPPRLPRPRPRPRGPPRP, the “shrunken log2 fold change” value was 1.66.

Regarding RRIRMRPPRLPRPRPRPSCTPRP, the “shrunken log2 fold change” value is -0.0592.

On to RRIRPRPPRLPRPRPRPFGLPRP, for which the “shrunken log2 fold change” value is -0.209.

In the case of RRIRARPPRLPRPRPRPHWHPRP, the “shrunken log2 fold change” value is -0.0354.

As to RRIRTRPPRLPRPRPRPYSFPRP, the “shrunken log2 fold change” value was -0.552.

For the sequence RRIRLRPPRLPRPRPRPLQRPRP, the “shrunken log2 fold change” value is 0.0926.

With RRIRVRPPRLPRPRPRPLEHPRP, the “shrunken log2 fold change” value is -0.22.

Take RRIRLRPPRLPRPRPRPWMNPRP: the “shrunken log2 fold change” value is -0.0474.

As for RRIRVRPPRLPRPRPRPPYFPRP, the “shrunken log2 fold change” value amounted to 0.0499.

Consider RRIRHRPPRLPRPRPRPEPAPRP, for which the “shrunken log2 fold change” value stood at 1.48.

On to RRIRYRPPRLPRPRPRPMHSPRP, for which the “shrunken log2 fold change” value is -1.02.

For the sequence RRIRNRPPRLPRPRPRPHKSPRP, the “shrunken log2 fold change” value is -0.298.

Take RRIRIRPPRLPRPRPRPHHHPRP: the “shrunken log2 fold change” value is -0.719.

Regarding RRIRSRPPRLPRPRPRPHYGPRP, the “shrunken log2 fold change” value was -0.00176.

Consider RRIRLRPPRLPRPRPRPWHYPRP, for which the “shrunken log2 fold change” value is -0.164.

For the sequence RRIRKRPPRLPRPRPRPMKWPRP, the “shrunken log2 fold change” value was -0.0374.

For the sequence RRIRLRPPRLPRPRPRPPMHPRP, the “shrunken log2 fold change” value came out at 0.363.

As to RRIRSRPPRLPRPRPRPQTPPRP, the “shrunken log2 fold change” value was 0.6.

As for RRIRFRPPRLPRPRPRPGNQPRP, the “shrunken log2 fold change” value is -0.00933.

As for RRIRERPPRLPRPRPRPTKQPRP, the “shrunken log2 fold change” value was -0.275.

For the sequence RRIRYRPPRLPRPRPRPTRWPRP, the “shrunken log2 fold change” value came out at 0.211.

RRIRTRPPRLPRPRPRPTTIPRP: the “shrunken log2 fold change” value is -0.111.

In the case of RRIRHRPPRLPRPRPRPEYSPRP, the “shrunken log2 fold change” value was -0.0276.

RRIRGRPPRLPRPRPRPFEQPRP: the “shrunken log2 fold change” value was found to be 0.618.

Consider RRIRFRPPRLPRPRPRPEDMPRP, for which the “shrunken log2 fold change” value turned out to be 0.000714.

As to RRIRHRPPRLPRPRPRPFINPRP, the “shrunken log2 fold change” value was -0.205.
